Measurements as given in IntAct's records for PubMed 23629652.

Molecular target: klk5_human KLK5 (UniProt Q9Y337)
Sequence (Q9Y337 whole entry): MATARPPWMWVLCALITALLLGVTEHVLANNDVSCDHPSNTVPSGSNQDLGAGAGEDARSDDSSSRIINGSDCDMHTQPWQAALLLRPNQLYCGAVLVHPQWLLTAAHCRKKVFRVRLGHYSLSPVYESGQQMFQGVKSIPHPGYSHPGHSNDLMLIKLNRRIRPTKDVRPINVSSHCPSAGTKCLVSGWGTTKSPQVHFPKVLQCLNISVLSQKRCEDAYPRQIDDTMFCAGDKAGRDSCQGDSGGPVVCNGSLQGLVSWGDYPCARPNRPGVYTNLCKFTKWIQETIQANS

effect of a mutation on the interaction: disrupting interaction
Substance: Filaggrin (Homo sapiens), P20930 S3385H;Y3388H;Q3389H;S3391H;T3392H
